B1: TSPAN4-mVenus (natural protein, human, UniProt O14817 1-238, looked up)
chain: MARACLQAVKYLMFAFNLLFWLGGCGVLGVGIWLAATQGSFATLSSSFPSLSAANLLIITGAFVMAIGFVGCLGAIKENKCLLLTFFLLLLLVFLLEATIAILFFAYTDKIDRYAQQDLKKGLHLYGTQGNVGLTNAWSIIQTDFRCCGVSNYTDWFEVYNATRVPDSCCLEFSESCGLHAPGTWWKAPCYETVKVWLQENLLAVGIFGLCTALVQILGLTFAMTMYCQVVKADTYCA
notes: tetraspanin 4 (TSPAN4), human; stop codon replaced by SpeI-NotI sites coding for a TSAAA linker, mVenus at the intracellular C-terminus; also called TSPAN4-mVenus/pcDEF3; source: HEK293T, transiently transfected, in living cells; not shown: mVenus (with TSAAA linker), C-terminal, kept
B2: mVenus-TSPAN4 (natural protein, human, UniProt O14817 2-238, looked up)
chain: ARACLQAVKYLMFAFNLLFWLGGCGVLGVGIWLAATQGSFATLSSSFPSLSAANLLIITGAFVMAIGFVGCLGAIKENKCLLLTFFLLLLLVFLLEATIAILFFAYTDKIDRYAQQDLKKGLHLYGTQGNVGLTNAWSIIQTDFRCCGVSNYTDWFEVYNATRVPDSCCLEFSESCGLHAPGTWWKAPCYETVKVWLQENLLAVGIFGLCTALVQILGLTFAMTMYCQVVKADTYCA
notes: tetraspanin 4 (TSPAN4), human; start codon replaced by SpeI-NotI sites coding for a TSAAA linker, mVenus at the intracellular N-terminus; also called mVenus-TSPAN4/pcDNA3.1; source: HEK293T, transiently transfected, in living cells (BRET) and in lysate (co-IP); not shown: mVenus (with TSAAA linker), N-terminal, kept

Biological target: T1, H4R-Nluc (human, UniProt Q9H3N8-1 1-390)
T1 construct: histamine H4 receptor (H4R), human; Nluc fused in frame to the intracellular C-terminal tail; also called H4R-Nluc/pcDEF3; human H4R-Nluc fusion; source: HEK293T, transiently transfected, in living cells; not shown: NanoLuc (Nluc), C-terminal, kept
T1 sequence (Q9H3N8 whole entry, the tested form may be a part): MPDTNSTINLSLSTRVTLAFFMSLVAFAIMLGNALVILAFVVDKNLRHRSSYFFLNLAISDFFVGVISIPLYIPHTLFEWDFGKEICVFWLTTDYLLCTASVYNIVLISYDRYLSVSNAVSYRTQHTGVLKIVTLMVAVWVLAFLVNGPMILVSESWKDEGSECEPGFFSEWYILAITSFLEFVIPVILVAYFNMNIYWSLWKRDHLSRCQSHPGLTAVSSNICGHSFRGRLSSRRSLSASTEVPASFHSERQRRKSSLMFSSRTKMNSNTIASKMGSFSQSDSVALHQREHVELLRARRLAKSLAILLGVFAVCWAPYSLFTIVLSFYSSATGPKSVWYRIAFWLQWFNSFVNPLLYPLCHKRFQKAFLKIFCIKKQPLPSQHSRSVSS
Experiment: FRET or BRET; saturation BRET in living HEK293T cells; constant H4R-Nluc donor (12.5 ng) with 0-500 ng mVenus-tagged TSPAN4 acceptor plasmid; HBSS, 37 °C; vehicle or 10 µM histamine; one site-specific binding fit
Conditions: partners not purified

| Binder | BRET50 (vehicle) [mVenus/Nluc ratio] | BRET50 (with 10 µM histamine) [mVenus/Nluc ratio] |
| --- | --- | --- |
| B1 | 0.45 | 0.68 |
| B2 | 0.79 | 0.92 |
